Experiments:
[1] = target: lentiviral wild type parkin (expressed in transfected neuroblastoma cells), O60260
[2] = target: T1, non-catalytic mutant T240R parkin (lentiviral), O60260
T1 chain: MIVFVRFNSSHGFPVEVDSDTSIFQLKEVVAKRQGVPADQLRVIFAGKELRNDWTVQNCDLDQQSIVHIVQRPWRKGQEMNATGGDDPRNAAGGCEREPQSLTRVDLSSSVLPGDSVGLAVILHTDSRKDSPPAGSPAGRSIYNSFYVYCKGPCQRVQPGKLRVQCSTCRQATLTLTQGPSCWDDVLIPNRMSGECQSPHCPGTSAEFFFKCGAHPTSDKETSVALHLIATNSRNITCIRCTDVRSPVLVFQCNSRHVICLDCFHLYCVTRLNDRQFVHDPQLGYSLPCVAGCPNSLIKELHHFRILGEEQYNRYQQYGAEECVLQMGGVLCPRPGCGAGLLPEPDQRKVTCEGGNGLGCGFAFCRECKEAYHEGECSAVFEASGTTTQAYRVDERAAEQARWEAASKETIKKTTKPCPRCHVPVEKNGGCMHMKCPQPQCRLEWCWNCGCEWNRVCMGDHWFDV

B1: lentiviral USP13 (expressed in transfected neuroblastoma cells) (protein)
chain: MQRRGALFGMPGGSGGRKMAAGDIGELLVPHMPTIRVPRSGDRVYKNECAFSYDSPNSEGGLYVCMNTFLAFGREHVERHFRKTGQSVYMHLKRHVREKVRGASGGALPKRRNSKIFLDLDTDDDLNSDDYEYEDEAKLVIFPDHYEIALPNIEELPALVTIACDAVLSSKSPYRKQDPDTWENELPVSKYANNLTQLDNGVRIPPSGWKCARCDLRENLWLNLTDGSVLCGKWFFDSSGGNGHALEHYRDMGYPLAVKLGTITPDGADVYSFQEEEPVLDPHLAKHLAHFGIDMLHMHGTENGLQDNDIKLRVSEWEVIQESGTKLKPMYGPGYTGLKNLGNSCYLSSVMQAIFSIPEFQRAYVGNLPRIFDYSPLDPTQDFNTQMTKLGHGLLSGQYSKPPVKSELIEQVMKEEHKPQQNGISPRMFKAFVSKSHPEFSSNRQQDAQEFFLHLVNLVERNRIGSENPSDVFRFLVEERIQCCQTRKVRYTERVDYLMQLPVAMEAATNKDELIAYELTRREAEANRRPLPELVRAKIPFSACLQAFSEPENVDDFWSSALQAKSAGVKTSRFASFPEYLVVQIKKFTFGLDWVPKKFDVSIDMPDLLDINHLRARGLQPGEEELPDISPPIVIPDDSKDRLMNQLIDPSDIDESSVMQLAEMGFPLEACRKAVYFTGNMGAEVAFNWIIVHMEEPDFAEPLTMPGYGGAASAGASVFGASGLDNQPPEEIVAIITSMGFQRNQAIQALRATNNNLERALDWIFSHPEFEEDSDFVIEMENNANANIISEAKPEGPRVKDGSGTYELFAFISHMGTSTMSGHYICHIKKEGRWVIYNDHKVCASERPPKDLGYMYFYRRIPS
**Q.** Which “parkin ubiquitination (E3LITE ubiquitin ligase ELISA with E1, UbcH7, ATP and WT ubiquitin)” value [1] does the source give for B1 here?
**A.** Its value is “USP13 significantly decreased (36%) parkin ubiquitination”.

**Q.** And the “ubiquitinated parkin level (parkin immunoprecipitation and Western blot with anti-ubiquitin antibodies)” value [1]?
**A.** Its value is “decreased ubiquitinated parkin level when parkin was co-expressed with USP13”.

**Q.** And the “level of ubiquitinated proteins (parkin immunoprecipitation and Western blot with anti-ubiquitin antibodies)” value [2]?
**A.** Its value is “the level of ubiquitinated proteins when mutant T240R parkin was expressed was unaltered in the presence or absence of USP13”.

— patent US20140271668
